Experimental data taken from patent US20190071490A1, “Preventing Post-Ictal Headaches” (Beth Israel Deaconess Medical Center, Inc., priority 2017, published 2019).

T1: human α-CGRP (Homo sapiens, UniProt P06881)
T1 construct: 1-37 (WT); purchased GenScript Corporation or Global Peptide Services
T1 sequence (P06881 83-119 limits assumed): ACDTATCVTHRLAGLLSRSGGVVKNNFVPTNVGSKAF

T2: rat α-CGRP (Rattus norvegicus, UniProt P01256)
T2 construct: rat α (1-37); purchased GenScript Corporation or Global Peptide Services
T2 sequence (P01256 83-119 limits assumed): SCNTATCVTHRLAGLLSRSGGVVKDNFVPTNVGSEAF


What was measured:
[1] = molecular target: T1, human α-CGRP; assay: Biacore SPR affinity of Fab fragments to N-biotinylated human α-CGRP on SA chip; assay type: binding; conditions: 37° C., screening mode except underlined values
How it was run: (§1)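 HBS-EP pH 7.4 running buffer at 25° C. or 37° C.; N-biotinylated CGRP captured on streptavidin SA chip (<50 RU for kinetics), Fab titrated over surface with regeneration by 25 mM NaOH/25% ethanol. Titrations globally fit to 1:1 Langmuir model; KD=koff/kon, with 2-hour dissociation for very slow off-rates.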

[2] = molecular target: T2, rat α-CGRP; assay: Biacore SPR affinity of Fab fragments to N-biotinylated rat α-CGRP on SA chip; assay type: binding; conditions: 37° C., screening mode except underlined values
How it was run: as §1

α-human koff [1] [s⁻¹] | α-rat koff [2] [s⁻¹] | Molecule
0.00038 | 0.00359 | M29: G1 variant; L1 R28N T30G; HC-FW3 L99T A100V (antibody, V domains shown) VH: EVQLVESGGGLVQPGGSLRLSCAASGFTFSNYWISWVRQAPGKGLEWVAEIRSESDASATHYAEAVKGRFTISRDNAKNSLYLQMNSLRAEDTAVYYCTVYFDYGLAIQNYWGQGTLVTVSS VL: EIVLTQSPATLSLSPGERATLSCKASKNVGTYVSWYQQKPGQAPRLLIYGASNRYLGIPARFSGSGSGTDFTLTISSLEPEDFAVYYCSQSYNYPYTFGQGTKLEIK
0.000339 | 0.00399 | M35: G1 variant; L1 R28N T30G; H2 E54K A57S; HC-FW3 L99T A100V (antibody, V domains shown) VH: EVQLVESGGGLVQPGGSLRLSCAASGFTFSNYWISWVRQAPGKGLEWVAEIRSKSDSSATHYAEAVKGRFTISRDNAKNSLYLQMNSLRAEDTAVYYCTVYFDYGLAIQNYWGQGTLVTVSS VL: EIVLTQSPATLSLSPGERATLSCKASKNVGTYVSWYQQKPGQAPRLLIYGASNRYLGIPARFSGSGSGTDFTLTISSLEPEDFAVYYCSQSYNYPYTFGQGTKLEIK
0.000425 | 0.00995 | M39: G1 variant; L1 R28N; L2 G50A L56T; H2 A57N S58Y; HC-FW3 L99T A100V (antibody, V domains shown) VH: EVQLVESGGGLVQPGGSLRLSCAASGFTFSNYWISWVRQAPGKGLEWVAEIRSESDNYATHYAEAVKGRFTISRDNAKNSLYLQMNSLRAEDTAVYYCTVYFDYGLAIQNYWGQGTLVTVSS VL: EIVLTQSPATLSLSPGERATLSCKASKNVTTYVSWYQQKPGQAPRLLIYAASNRYTGIPARFSGSGSGTDFTLTISSLEPEDFAVYYCSQSYNYPYTFGQGTKLEIK
0.000218 | 0.00511 | M38: G1 variant; L1 R28N T30W; HC-FW3 L99T A100V (antibody, V domains shown) VH: EVQLVESGGGLVQPGGSLRLSCAASGFTFSNYWISWVRQAPGKGLEWVAEIRSESDASATHYAEAVKGRFTISRDNAKNSLYLQMNSLRAEDTAVYYCTVYFDYGLAIQNYWGQGTLVTVSS VL: EIVLTQSPATLSLSPGERATLSCKASKNVWTYVSWYQQKPGQAPRLLIYGASNRYLGIPARFSGSGSGTDFTLTISSLEPEDFAVYYCSQSYNYPYTFGQGTKLEIK
0.00128 | 0.36 | M40: G1 variant; L1 R28N; L2 G50A L56T; H2 E54K A57L; HC-FW3 L99T A100V (antibody, V domains shown) VH: EVQLVESGGGLVQPGGSLRLSCAASGFTFSNYWISWVRQAPGKGLEWVAEIRSKSDLSATHYAEAVKGRFTISRDNAKNSLYLQMNSLRAEDTAVYYCTVYFDYGLAIQNYWGQGTLVTVSS VL: EIVLTQSPATLSLSPGERATLSCKASKNVTTYVSWYQQKPGQAPRLLIYAASNRYTGIPARFSGSGSGTDFTLTISSLEPEDFAVYYCSQSYNYPYTFGQGTKLEIK
0.000271 | 0.00296 | M32: G1 variant; L1 R28N T30G; H2 E54K A57H; HC-FW3 L99T A100V (antibody, V domains shown) VH: EVQLVESGGGLVQPGGSLRLSCAASGFTFSNYWISWVRQAPGKGLEWVAEIRSKSDHSATHYAEAVKGRFTISRDNAKNSLYLQMNSLRAEDTAVYYCTVYFDYGLAIQNYWGQGTLVTVSS VL: EIVLTQSPATLSLSPGERATLSCKASKNVGTYVSWYQQKPGQAPRLLIYGASNRYLGIPARFSGSGSGTDFTLTISSLEPEDFAVYYCSQSYNYPYTFGQGTKLEIK
0.000239 | 0.00479 | M36: G1 variant; L1 R28N T30R; HC-FW3 L99T A100V (antibody, V domains shown) VH: EVQLVESGGGLVQPGGSLRLSCAASGFTFSNYWISWVRQAPGKGLEWVAEIRSESDASATHYAEAVKGRFTISRDNAKNSLYLQMNSLRAEDTAVYYCTVYFDYGLAIQNYWGQGTLVTVSS VL: EIVLTQSPATLSLSPGERATLSCKASKNVRTYVSWYQQKPGQAPRLLIYGASNRYLGIPARFSGSGSGTDFTLTISSLEPEDFAVYYCSQSYNYPYTFGQGTKLEIK
0.00021 | 0.00453 | M41: G1 variant; L1 R28N; L2 G50A L56T; H2 E54K A57N E64D; HC-FW3 L99T A100V (antibody, V domains shown) VH: EVQLVESGGGLVQPGGSLRLSCAASGFTFSNYWISWVRQAPGKGLEWVAEIRSKSDNSATHYADAVKGRFTISRDNAKNSLYLQMNSLRAEDTAVYYCTVYFDYGLAIQNYWGQGTLVTVSS VL: EIVLTQSPATLSLSPGERATLSCKASKNVTTYVSWYQQKPGQAPRLLIYAASNRYTGIPARFSGSGSGTDFTLTISSLEPEDFAVYYCSQSYNYPYTFGQGTKLEIK
0.000646 | 0.00217 | M34: G1 variant; L1 R28N T30G; H2 E54K A57N S58T; HC-FW3 L99T A100V (antibody, V domains shown) VH: EVQLVESGGGLVQPGGSLRLSCAASGFTFSNYWISWVRQAPGKGLEWVAEIRSKSDNTATHYAEAVKGRFTISRDNAKNSLYLQMNSLRAEDTAVYYCTVYFDYGLAIQNYWGQGTLVTVSS VL: EIVLTQSPATLSLSPGERATLSCKASKNVGTYVSWYQQKPGQAPRLLIYGASNRYLGIPARFSGSGSGTDFTLTISSLEPEDFAVYYCSQSYNYPYTFGQGTKLEIK
0.000347 | 0.00361 | M31: G1 variant; L1 R28N T30G; H2 E54K A57G; HC-FW3 L99T A100V (antibody, V domains shown) VH: EVQLVESGGGLVQPGGSLRLSCAASGFTFSNYWISWVRQAPGKGLEWVAEIRSKSDGSATHYAEAVKGRFTISRDNAKNSLYLQMNSLRAEDTAVYYCTVYFDYGLAIQNYWGQGTLVTVSS VL: EIVLTQSPATLSLSPGERATLSCKASKNVGTYVSWYQQKPGQAPRLLIYGASNRYLGIPARFSGSGSGTDFTLTISSLEPEDFAVYYCSQSYNYPYTFGQGTKLEIK
0.000263 | 0.00453 | M43: G1 variant; L1 R28N; L2 G50A L56T; H2 E54K A57N S58C; HC-FW3 L99T A100V (antibody, V domains shown) VH: EVQLVESGGGLVQPGGSLRLSCAASGFTFSNYWISWVRQAPGKGLEWVAEIRSKSDNCATHYAEAVKGRFTISRDNAKNSLYLQMNSLRAEDTAVYYCTVYFDYGLAIQNYWGQGTLVTVSS VL: EIVLTQSPATLSLSPGERATLSCKASKNVTTYVSWYQQKPGQAPRLLIYAASNRYTGIPARFSGSGSGTDFTLTISSLEPEDFAVYYCSQSYNYPYTFGQGTKLEIK
0.00059 | 0.00638 | M30: G1 variant; L1 R28N T30G; H2 E54K A57E; HC-FW3 L99T A100V (antibody, V domains shown) VH: EVQLVESGGGLVQPGGSLRLSCAASGFTFSNYWISWVRQAPGKGLEWVAEIRSKSDESATHYAEAVKGRFTISRDNAKNSLYLQMNSLRAEDTAVYYCTVYFDYGLAIQNYWGQGTLVTVSS VL: EIVLTQSPATLSLSPGERATLSCKASKNVGTYVSWYQQKPGQAPRLLIYGASNRYLGIPARFSGSGSGTDFTLTISSLEPEDFAVYYCSQSYNYPYTFGQGTKLEIK
0.00075 | 0.00922 | M33: G1 variant; L1 R28N T30G; H2 E54K A57N S58G; HC-FW3 L99T A100V (antibody, V domains shown) VH: EVQLVESGGGLVQPGGSLRLSCAASGFTFSNYWISWVRQAPGKGLEWVAEIRSKSDNGATHYAEAVKGRFTISRDNAKNSLYLQMNSLRAEDTAVYYCTVYFDYGLAIQNYWGQGTLVTVSS VL: EIVLTQSPATLSLSPGERATLSCKASKNVGTYVSWYQQKPGQAPRLLIYGASNRYLGIPARFSGSGSGTDFTLTISSLEPEDFAVYYCSQSYNYPYTFGQGTKLEIK
0.000226 | 0.00145 | M37: G1 variant; L1 R28N T30S; H2 A57G; HC-FW3 L99T A100V (antibody, V domains shown) VH: EVQLVESGGGLVQPGGSLRLSCAASGFTFSNYWISWVRQAPGKGLEWVAEIRSESDGSATHYAEAVKGRFTISRDNAKNSLYLQMNSLRAEDTAVYYCTVYFDYGLAIQNYWGQGTLVTVSS VL: EIVLTQSPATLSLSPGERATLSCKASKNVSTYVSWYQQKPGQAPRLLIYGASNRYLGIPARFSGSGSGTDFTLTISSLEPEDFAVYYCSQSYNYPYTFGQGTKLEIK
0.000417 | 0.00752 | M42: G1 variant; L1 R28N; L2 G50A L56T; H2 E54K A57N H61F; HC-FW3 L99T A100V (antibody, V domains shown) VH: EVQLVESGGGLVQPGGSLRLSCAASGFTFSNYWISWVRQAPGKGLEWVAEIRSKSDNSATFYAEAVKGRFTISRDNAKNSLYLQMNSLRAEDTAVYYCTVYFDYGLAIQNYWGQGTLVTVSS VL: EIVLTQSPATLSLSPGERATLSCKASKNVTTYVSWYQQKPGQAPRLLIYAASNRYTGIPARFSGSGSGTDFTLTISSLEPEDFAVYYCSQSYNYPYTFGQGTKLEIK
